# Patent US8741840B2, “BMP-7 for use in treating neointimal hyperplasia” (Washington University, priority 2008, dated 2014)
# Several values for one entry are separate records, joined by “and”; a condition that tells them apart may be missing. Equal entries are not always repeated.
# B1: BMP-7: bone morphogenetic protein-7 (osteogenic protein-1), mineralization-countering morphogen; provided by Johnson and Johnson (protein, listed as Homo sapiens)
# chain: STGSKQRSQNRSKTPKNQEALRMANVAENSSSDQRQACKKHELYVSFRDLGWQDWIIAPEGYAAYYCEGECAFPLNSYMNATNHAIVQTLVHFINPETVPKPCCAPTQLNAISVLYFDDSSNVILKKYRNMVVRACGCH
# Tests used:
# [1] = tested on: LDLR−/− high fat fed mice; experiment: Histology of proximal aorta (alizarin red): calcified atherosclerotic plaques; assay type: in vivo, mouse
# Excerpt: Tissue Preparation: Resected specimens were flash frozen in liquid nitrogen, then divided as follows: the heart, ascending aorta and aortic arch were separated from the descending aorta, and bisected sagittally through the aortic outflow tract. The descending aorta was bisected coronally, approximately halfway along its length. In order to visualize calcification in the tissue sections, Slices (5 μm thick) were cut and stained with von Kossa and Trap staining.
# Additional mice were enrolled to the study for qualitative analysis of aortas to quantitate the effects of the treatments, because aortas of the experimental animals were destroyed by the technique of quantifying the aortic calcium content. Vascular calcification was largely aortic atherosclerotic plaque associated (FIG. 3), and punctate calcifications in the tunica media were observed. Panel A: Large lipid laden plaque (between arrows) in proximal aorta of a sham-operated high fat fed LDLR−/− mouse. Thick arrows identify focal calcifications in the base of the plaque. Panel B: A large calcified plaque (between arrows) in the proximal aorta of a CKD high fat fed LDLR−/− mouse. Panel C: A large lipid laden plaque (between arrows) in the proximal aorta of a BMP-7 treated CKD high fat fed LDLR−/− mouse. The stain is alizarin red. Magnification is 400× in A-C.
# [2] = tested on: human vascular smooth muscle cells (hVSMC) isolated from atherosclerotic donors; experiment: Phosphorus stimulated matrix mineralization (matrix Ca content) in hVSMC cultures; assay type: cell-based; set-up: Matrix Ca content, Effects of 10 ng/ml BMP-7: unit not given here
# Experimental: Cell Culture: Human adult aorta were obtained from seven cadaveric organ donors rejected because of atherosclerosis by Mid-America Transplant Services (St. Louis, Mo.) and enzymatically digested to obtain Human Smooth Muscle Cells (HSMC). Medial tissue was separated from the adventia and intima and digested with collagenase type I (Worthington, Lakewood, N.J.) 2 mg/ml for 1 hr, and washed with Hank's balanced salt solution (HBSS). Further digestion followed with collagenase type II 1 mg/ml (Worthington, Lakewood, N.J.) and elastase 0.25 mg/ml (Worthington, Lakewood, N.J.) for 4 hrs. Cell suspensions were washed twice with HBSS and cultured in T-75 flasks for three weeks in a 95%/5% air/CO2 humidified environment at 37° C. The growth medium used was DMEM containing […] glucose (high glucose), 10% fetal bovine serum (FBS, Atlas, Fort Collins, Colo.), 1 mM sodium pyruvate, 100 units/ml Penicillin and […] Streptomycin (Sigma, St Louis, Mo.). Cell purity was assessed by positive immunostaining for α-smooth muscle actin and calponin and for the absence of von Willebrand factor. In all experimental protocols, cells were seeded at 1×10^5 cells/well in six-well plates. Medium was changed on the first day and every third day thereafter. In all cases, cells used were between passages two and five (Table 3).
# Induction of Calcification: At the time of confluence, cells were switched to mineralization medium consisting of DMEM supplemented with 1 or 2 mM Pi. For cells exposed to BMP-7 treatment, fresh mineralization medium containing either vehicle (mannitol, acetic acid, acetate) or BMP-7 in vehicle was added at 0.1, 1.0, 10, or 100 ng/ml. The medium was changed every two or three days. […] Calcium content was quantified and normalized to cellular protein as described. (Jono 2000; Moe S. M. et al., Kidney Int 67:2295-2304, 2005)^11;52
# In vitro matrix mineralization. […]
# [3] = Blood tests: serum biochemical parameters in the various groups of animals; assay type: in vivo, mouse
# Experimental: Animals were sacrificed under anesthesia 28 weeks post natal. At the time of sacrifice, blood was taken by intracardiac stab, and the heart and aorta dissected en bloc. The BMP-7 treated group received intraperitoneal injection of BMP-7 10 μg/kg dry weight once weekly in 100 μl vehicle [mannitol (5% w/v), NaAcetate buffer (20 mM, pH 4.0-4.5), sterile water].
# Animals were allocated to one of seven CKD high fat fed groups after the second surgery: Other control Groups included LDLR−/− sham operated mice on chow diet, and LDLR−/− mice with CKD on chow diet. C57B16 WT mice fed chow served as the normal benchmark source. […] Group 1 were LDLR−/− mice on the high fat diet sacrificed at 22 weeks. Group 2 were LDLR−/− mice with CKD fed the high fat diet and treated weekly from 22 to 28 weeks with vehicle IP. […] Group 3 was the first treatment group. These were LDLR−/− mice with CKD on high fat diet that received BMP-7 treatment (10 μg/kg IP weekly). Group 4 were LDLR−/− mice with CKD on high fat diet treated with sevelamer CO3 1%. Group 5 were LDLR−/− mice with CKD on high fat diet treated with sevelamer CO3 3%. […] Once the mice were randomized into groups, they were allowed to develop calcification from weeks 14 through weeks 22 post natal. Therapy was initiated at 23 weeks postnatal and continued until week 28 postnatal at which time the mice were examined.
# Blood tests: Serum was analyzed on the day of blood draw for blood urea nitrogen [BUN], cholesterol, calcium and phosphate by standard laboratory methods. Before initiation of therapy, blood was obtained through saphenous vein. At the time of sacrifice, blood was obtained through intracardiac stab.
# [4] = tested on: AV anastomosis NH lesion in mice; experiment: Neointimal hyperplasia lesion formation at arteriovenous fistula anastomosis in CKD and sham mice; assay type: in vivo, mouse
# Excerpt: Six weeks after creation of CKD and sham mice as described above, animals underwent an AV fistula creation by anastomosing the left common carotid artery to the jugular vein in an end-to-side fashion. Under a sterile condition, a vertical incision was made in the left neck with the left common carotid artery and the adjacent external jugular vein carefully dissected out. The common carotid artery clamp was placed at the proximal portion with an 11-0 nylon suture and the common carotid artery was divided just proximal to the bifurcation. Next, the jugular vein was clamped proximally and distally and punctured in the middle portion with a 27 G syringe. After filling this vein segment with heparinized saline, the venotomy of 0.7 mm in length was performed. […]
# Three weeks after AV fistula creation, animals were euthanized, and the AV anastomoses were perfusion-fixed via the left ventricle at 100 mm Hg pressure as described previously (Leidenfrost J E, et al., Am J Pathol. 2003; 163(2):773-778).^53 Before perfusion fixation, blood was drawn from the left ventricle for the biochemical analysis. Blood urea nitrogen (BUN), phosphorus, and calcium were measured by autoanalyzer techniques in the Animal Facility Clinical Laboratory at Washington University in St. Louis, Mo. […]
# [5] = tested on: LDLR−/− mice with CKD on high fat diet; experiment: Chemical quantitation of aortic calcium in high fat fed LDLR-/- mice with CKD (treatment study, weeks 22-28); assay type: in vivo, mouse; conditions: therapy weeks 22-28 post natal; BMP-7 10 μg/kg IP weekly; CaCO3 or LaCO3 3% in diet (FIG. 1A, FIG. 2)
# Excerpt: At 10 weeks, animals were either continued on this chow diet or initiated on a high cholesterol (0.15%) diet containing 42% calories as fat [Harlan Teklad, Madison Wis., Product No. TD88137].
# Induction of CKD: A two-step procedure was utilized to create uremia as previously described. (Davies 2003; Lund, 2004)^19;21 Saphenous vein blood samples were taken 1 week following the second surgery to assess baseline post-surgical renal function. Animals were sacrificed under anesthesia 28 weeks post natal. At the time of sacrifice, blood was taken by intracardiac stab, and the heart and aorta dissected en bloc. The BMP-7 treated group received intraperitoneal injection of BMP-7 10 μg/kg dry weight once weekly in 100 μl vehicle [mannitol (5% w/v), NaAcetate buffer (20 mM, pH 4.0-4.5), sterile water].
# Group 1 were LDLR−/− mice on the high fat diet sacrificed at 22 weeks. Group 2 were LDLR−/− mice with CKD fed the high fat diet and treated weekly from 22 to 28 weeks with vehicle IP. […]
# Chemical Calcification Quantitation: similar to our previous experimental plans (Davies 2003; Davies 2005).^19;20 Aorta and hearts were dissected at sacrifice, and all extraneous tissue removed by blunt dissection under a dissecting microscope. […]
# Mice were treated with 10 mcg/kg BMP-7 injected intraperitoneally once weekly. […] The data are expressed as group mean±SEM, n=4-7.
# The data are expressed as group mean±SEM, n=4-5.
molecule,measurement,setting,value
B1,size of the atherosclerotic lesions,[1]; proximal aorta (FIG. 3),did not decrease the size of the atherosclerotic lesions
same,plaque associated calcium deposition,"[1]; proximal aorta, alizarin red stain (FIG. 3)",diminished plaque associated calcium deposition
same,mineralization of the ECM,"[2]; BMP-7 0.1, 1 and 10 ng/ml, 14 or 21 days in high phosphorus media (FIG. 4)",decreased mineralization of the ECM
same,"Matrix Ca content, Effects of 10 ng/ml BMP-7","[2]; hVSMC from atherosclerotic aortas, one donor (donors 1-7, passage 2-3), 10 ng/ml BMP-7 in high phosphorus (2 mM PO4) media",18 and 17.9 and 25.8 and 19.8 and 22.1 and 20.3 and 20.6
same,serum phosphorus / hyperphosphatemia,"[3]; CKD high fat fed LDLR-/- mice, treated weeks 22-28 (FIG. 1B, Table 5)",reduced to normal levels
same,Phosphorus,"[3]; serum, LDLR-/-, fat diet, CKD, 28 weeks post natal, BMP-7 10 μg/kg IP weekly or binder 3% in diet",6.325 ± .471 mg/dL
same,NH lesion formation induced by CKD,"[4]; CKD animals, BMP-7 100 μg/kg intraperitoneally twice a week, P<0.01 (FIG. 12)",eliminated the stimulation of NH lesion formation induced by CKD
same,NH lesion development,"[4]; sham operated animals, BMP-7 100 μg/kg intraperitoneally twice a week (FIG. 12)",no effect
same,aortic calcium (vascular calcification) versus the 22 week start point,[5],significant reduction of aortic calcification compared to the 22 week start point
